The results in this text go back to US20230406951A1 (Pfizer, published 2023).

Positions count from the first letter of the chain named.

The target in the assay is T1, human TNFR2 (human, UniProt P20333 23-461).
T1 construct: expressed on the surface of CHO cells; also called HuTNFR2; TNFRSF1B
T1 sequence: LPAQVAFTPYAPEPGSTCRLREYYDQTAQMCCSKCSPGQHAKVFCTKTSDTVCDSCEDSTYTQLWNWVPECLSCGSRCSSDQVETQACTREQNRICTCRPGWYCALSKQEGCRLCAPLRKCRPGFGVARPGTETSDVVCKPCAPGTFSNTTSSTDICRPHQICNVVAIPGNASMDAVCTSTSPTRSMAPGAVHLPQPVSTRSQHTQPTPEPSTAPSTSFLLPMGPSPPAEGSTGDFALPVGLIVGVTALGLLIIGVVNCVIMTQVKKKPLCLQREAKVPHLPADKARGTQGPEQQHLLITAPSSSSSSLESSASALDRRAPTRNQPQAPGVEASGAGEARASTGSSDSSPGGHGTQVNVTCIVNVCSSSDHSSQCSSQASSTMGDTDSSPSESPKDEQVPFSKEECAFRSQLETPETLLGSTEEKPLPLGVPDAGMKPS
The experiment in a line: binding to human TNFR2 CHO cells.

B1: IgG 1971 (antibody, name in Kabat numbering, V domains shown)
VH: QVQLVQSGAEVKKPGASVKVSCKVSGFSFPSSGVDWVRQAPGQGLEWLGVTHGSGSTHYNQKFQGRVTITKDTSKSTVYMELSSLRSEDTAVYYCASGERDEGFVYWGQGTLVTVSS
VL: DIQLTQSPSFLSASVGDRVTITCKASQNVGTAVAWYQQKPGKAPKLLIYAASTLQSGVPSRFSGSGSGTEFTLTISSLQPEDFATYYCQQYSSYPLTFGGGTKVEIKR
notes: IgG
Consider B1, for which the binding result is “no binding”.

B2: IgG 2030 (antibody, name in Kabat numbering, V domains shown)
VH: B1 VH with R100H
VL: B1 VL with Q89L, Y91K
notes: IgG
With B2, the binding result is recorded as “no binding”.

B3: IgG 2033 (antibody, name in Kabat numbering, V domains shown)
VH: B1 VH with H52K, S54Q, R100S, D101T
VL: B1 VL with Q89L
notes: IgG
In the case of B3, the binding result is reported as “no binding”.

B4: IgG 2044 (antibody, name in Kabat numbering, V domains shown)
VH: B1 VH with H52F, G53Q, S54E, R100Q
VL: B1 VL with Q89L
notes: IgG
As for B4, the binding result is given as “no binding”.

B5: IgG 2026 (antibody, name in Kabat numbering, V domains shown)
VH: B1 VH with H52L, S54H, R100H
VL: B1 VL with Q89L, Y91K
notes: IgG
For B5, the binding result is on record as “no binding”.

B6: IgG 2015 (antibody, name in Kabat numbering, V domains shown)
VH: B1 VH with H52K, S54Q
VL: B1 VL with Q89L, Y91K
notes: IgG
As to B6, the binding result is “no binding”.

B7: IgG 2043 (antibody, name in Kabat numbering, V domains shown)
VH: B1 VH with H52F, G53Q, S54E
VL: B1 VL with Q89L
notes: IgG
B7: the binding result was “no binding”.

B8: IgG 2017 (antibody, name in Kabat numbering, V domains shown)
VH: B1 VH with H52R, S54E, R100S, D101T
VL: B1 VL with Q89L, Y91K
notes: IgG
For the molecule B8, the binding result is listed as “no binding”.

B9: IgG 2013 (antibody, name in Kabat numbering, V domains shown)
VH: B1 VH with H52K, S54Q, R100S, D101T
VL: B1 VL with Q89L, Y91K
notes: IgG
On to B9, for which the binding result was “no binding”.

B10: IgG 2023 (antibody, name in Kabat numbering, V domains shown)
VH: B1 VH with H52F, G53Q, S54E
VL: B1 VL with Q89L, Y91K
notes: IgG
B10: the binding result is reported as “no binding”.

B11: IgG 2019 (antibody, name in Kabat numbering, V domains shown)
VH: B1 VH with H52R, S54E
VL: B1 VL with Q89L, Y91K
notes: IgG
In the case of B11, the binding result is given as “no binding”.

B12: IgG 2038 (antibody, name in Kabat numbering, V domains shown)
VH: B1 VH with H52R, S54E, R100H
VL: B1 VL with Q89L
notes: IgG
For the molecule B12, the binding result is recorded as “no binding”.

B13: IgG 2032 (antibody, name in Kabat numbering, V domains shown)
VH: B1 VH with R100Q
VL: B1 VL with Q89L, Y91K
notes: IgG
Regarding B13, the binding result was “no binding”.

B14: IgG 2042 (antibody, name in Kabat numbering, V domains shown)
VH: B1 VH with H52F, G53Q, S54E, R100H
VL: B1 VL with Q89L
notes: IgG
Turning to B14, the binding result is reported as “no binding”.

B15: IgG 2025 (antibody, name in Kabat numbering, V domains shown)
VH: B1 VH with H52L, S54H, R100S, D101T
VL: B1 VL with Q89L, Y91K
notes: IgG
On to B15, for which the binding result is listed as “no binding”.

B16: IgG 2021 (antibody, name in Kabat numbering, V domains shown)
VH: B1 VH with H52F, G53Q, S54E, R100S, D101T
VL: B1 VL with Q89L, Y91K
notes: IgG
As to B16, the binding result is “no binding”.

B17: IgG 2031 (antibody, name in Kabat numbering, V domains shown)
VH: B1 VH
VL: B1 VL with Q89L, Y91K
notes: IgG
On to B17, for which the binding result was “no binding”.

B18: IgG 2052 (antibody, name in Kabat numbering, V domains shown)
VH: B1 VH with R100Q
VL: B1 VL with Q89L
notes: IgG
For the molecule B18, the binding result is reported as “no binding”.

B19: IgG 2048 (antibody, name in Kabat numbering, V domains shown)
VH: B1 VH with H52L, S54H, R100Q
VL: B1 VL with Q89L
notes: IgG
For B19, the binding result is reported as “no binding”.

B20: IgG 2050 (antibody, name in Kabat numbering, V domains shown)
VH: B1 VH with R100H
VL: B1 VL with Q89L
notes: IgG
For the molecule B20, the binding result is reported as “no binding”.

B21: IgG 2022 (antibody, name in Kabat numbering, V domains shown)
VH: B1 VH with H52F, G53Q, S54E, R100H
VL: B1 VL with Q89L, Y91K
notes: IgG
For the molecule B21, the binding result was “no binding”.

B22: IgG 2041 (antibody, name in Kabat numbering, V domains shown)
VH: B1 VH with H52F, G53Q, S54E, R100S, D101T
VL: B1 VL with Q89L
notes: IgG
On to B22, for which the binding result was “no binding”.

B23: IgG 1972 (antibody, name in Kabat numbering, V domains shown)
VH: B1 VH with R100Q
VL: B1 VL
notes: IgG
With B23, the binding result is given as “no binding”.

B24: IgG 2034 (antibody, name in Kabat numbering, V domains shown)
VH: B1 VH with H52K, S54Q, R100H
VL: B1 VL with Q89L
notes: IgG
As for B24, the binding result is “no binding”.

B25: IgG 2046 (antibody, name in Kabat numbering, V domains shown)
VH: B1 VH with H52L, S54H, R100H
VL: B1 VL with Q89L
notes: IgG
In the case of B25, the binding result was “no binding”.

B26: IgG 2037 (antibody, name in Kabat numbering, V domains shown)
VH: B1 VH with H52R, S54E, R100S, D101T
VL: B1 VL with Q89L
notes: IgG
With B26, the binding result is listed as “no binding”.

B27: IgG 2016 (antibody, name in Kabat numbering, V domains shown)
VH: B1 VH with H52K, S54Q, R100Q
VL: B1 VL with Q89L, Y91K
notes: IgG
Consider B27, for which the binding result was “no binding”.

B28: IgG 2047 (antibody, name in Kabat numbering, V domains shown)
VH: B1 VH with H52L, S54H
VL: B1 VL with Q89L
notes: IgG
In the case of B28, the binding result was “no binding”.

B29: IgG 2045 (antibody, name in Kabat numbering, V domains shown)
VH: B1 VH with H52L, S54H, R100S, D101T
VL: B1 VL with Q89L
notes: IgG
With B29, the binding result was “no binding”.

B30: IgG 2036 (antibody, name in Kabat numbering, V domains shown)
VH: B1 VH with H52K, S54Q, R100Q
VL: B1 VL with Q89L
notes: IgG
For B30, the binding result is reported as “no binding”.

B31: IgG 2035 (antibody, name in Kabat numbering, V domains shown)
VH: B1 VH with H52K, S54Q
VL: B1 VL with Q89L
notes: IgG
B31: the binding result was “no binding”.

B32: IgG 2051 (antibody, name in Kabat numbering, V domains shown)
VH: B1 VH
VL: B1 VL with Q89L
notes: IgG
Take B32: the binding result is reported as “no binding”.

B33: IgG 2039 (antibody, name in Kabat numbering, V domains shown)
VH: B1 VH with H52R, S54E
VL: B1 VL with Q89L
notes: IgG
With B33, the binding result was “no binding”.

B34: TetraFab 2171 (antibody)
heavy: QVQLVQSGAEVKKPGASVKVSCKVSGFSFPSSGVDWVRQAPGQGLEWLGVTRGEGSTHYNQKFQGRVTITKDTSKSTVYMELSSLRSEDTAVYYCASGEWDEGFVYWGQGTLVTVSSASTKGPSVFPLAPSSKSTSGGTAALGCLVKDYFPEPVTVSWNSGALTSGVHTFPAVLQSSGLYSLSSVVTVPSSSLGTQTYICNVNHKPSNTKVDKKVEPKSCGGGGSQVQLVQSGAEVKKPGASVKVSCKVSGFSFPSSGVDWVRQAPGQGLEWLGVTRGEGSTHYNQKFQGRVTITKDTSKSTVYMELSSLRSEDTAVYYCASGEWDEGFVYWGQGTLVTVSSASTKGPSVFPLAPSSKSTSGGTAALGCLVKDYFPEPVTVSWNSGALTSGVHTFPAVLQSSGLYSLSSVVTVPSSSLGTQTYICNVNHKPSNTKVDKKVEPKSCDKTHTCPPCPAPEAAGAPSVFLFPPKPKDTLMISRTPEVTCVVVDVSHEDPEVKFNWYVDGVEVHNAKTKPREEQYNSTYRVVSVLTVLHQDWLNGKEYKCKVSNKALPAPIEKTISKAKGQPREPQVYTLPPSREEMTKNQVSLTCLVKGFYPSDIAVEWESNGQPENNYKTTPPVLDSDGSFFLYSKLTVDKSRWQQGNVFSCSVMHEALHNHYTQKSLSLSPGK
light: DIQLTQSPSFLSASVGDRVTITCKASQNVGTAVAWYQQKPGKAPKLLIYAASTLQSGVPSRFSGSGSGTEFTLTISSLQPEDFATYYCLQYSSYPLTFGGGTKVEIKRTVAAPSVFIFPPSDEQLKSGTASVVCLLNNFYPREAKVQWKVDNALQSGNSQESVTEQDSKDSTYSLSSTLTLSKADYEKHKVYACEVTHQGLSSPVTKSFNRGEC
notes: TetraFab
Regarding B34, the binding result was “no binding”.

B35: TetraFab 2054 (antibody)
heavy: B34 heavy with R52K, E54Q, R277K, E279Q
light: B34 light with L89Q
notes: TetraFab
As for B35, the binding result was “no binding”.
